The assay deals with T1, human ILT5 on the surface of human peripheral blood cells (human, UniProt O75022 24-631).
T1 construct: whole, on cells; Endogenous ILT5 on primary human cells; also called surface ILT5; hILT5
The experiment in a line: flow cytometry, TRX585 staining of human PBMCs. From the text: The latter plots show the levels of two fluorescent parameters (i.e., fluorescent antibodies) on various cell subpopulations, quantitate the proportions of cells displaying these parameters, and indicate the frequency of cells present at each point in the plot. Here, peripheral blood mononuclear cells (PBMCs) from a healthy human donor were stained with the TRX585 antibody as well as antibodies specific for the indicated cell subset. In FIG. 1A, plots depict ILT5 (TRX585) expression by gated CD56⁻CD3⁺CD4⁺ or CD56⁻CD3⁺CD8⁺ T cells. In FIG. 1B, PBMCs were stained as in (A) and subsequently stained for intracellular Foxp3. Plots show ILT5 expression by gated CD56⁻CD3⁺CD4⁺Foxp3⁺ or CD56⁻ CD3⁺CD4⁺Foxp3⁻ T cells. […] Percentages of gated cells and mean fluorescence intensity of the ILT5-staining of ILT5⁺ cells are depicted inside and above plots, respectively. […]
Peripheral blood mononuclear cells (PBMCs) from healthy human blood donors were stained with a murine monoclonal antibody (TRX585) comprising a heavy chain variable region comprising the amino acid sequence of SEQ ID NO: 2 or SEQ ID NO: 3, and a light chain variable region comprising the amino acid sequence of SEQ ID NO: 1. […] PBMCs were also stained with antibodies specific for defined hematopoietic cell lineages and analyzed for ILT5 expression by flow cytometry.

T1 sequence (O75022 24-631): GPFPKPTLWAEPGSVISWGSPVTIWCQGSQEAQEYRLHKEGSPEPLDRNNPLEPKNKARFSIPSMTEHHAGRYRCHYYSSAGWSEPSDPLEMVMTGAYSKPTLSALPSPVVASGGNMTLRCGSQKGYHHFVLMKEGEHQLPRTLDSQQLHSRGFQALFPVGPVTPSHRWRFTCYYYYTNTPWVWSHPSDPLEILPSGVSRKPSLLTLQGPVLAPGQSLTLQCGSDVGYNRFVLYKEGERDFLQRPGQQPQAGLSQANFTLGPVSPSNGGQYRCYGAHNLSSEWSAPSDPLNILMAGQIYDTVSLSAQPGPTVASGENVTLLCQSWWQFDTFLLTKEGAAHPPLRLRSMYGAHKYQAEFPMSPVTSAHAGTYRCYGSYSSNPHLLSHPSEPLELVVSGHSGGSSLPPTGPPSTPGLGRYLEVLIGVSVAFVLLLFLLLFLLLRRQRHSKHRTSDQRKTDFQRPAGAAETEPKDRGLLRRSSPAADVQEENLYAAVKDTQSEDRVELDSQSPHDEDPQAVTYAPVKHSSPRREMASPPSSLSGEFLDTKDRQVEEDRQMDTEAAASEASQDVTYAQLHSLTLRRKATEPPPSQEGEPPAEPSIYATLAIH

B1: TRX585 (8G6 mAb), mouse anti-human ILT5 monoclonal antibody (antibody, V domains shown)
VH: DVQLQESGPGLVKPSQSLFLTCSVTGYSISSSYYWNWIRQFPGNKLEWMGYISFDGSNNYNPSLKNRISITRDTSKNQFFLKLNSVTTEDTATYYCAREKENYYGSSFYYFDYWGLGTSLTVSS
VL: DIQMTQSPASLSVSVGETVTITCRASENIYSNLAWYQQKQGKSPQVLVYAATNLADGVPSRFSGSGSGTQFSLKINSLQSEDFGNYFCQHFWRIPWTFGGGTKLEIK
notes: Murine monoclonal antibody, IgG1, kappa, purified from hybridoma supernatant; also called TRX585 antibody; TRX585 mAb
With B1, the binding result is “binds”.

Values taken from patent US20130030156A1 (Merck Sharp & Dohme, published 2013).
